{"source": "patent US20260263566A1", "about": "(REALTA, published 2026)", "target": "T1, Human neutrophil myeloperoxidase (MPO), purified (human, UniProt P05164 165-745, limits assumed)", "T1 sequence (looked up)": "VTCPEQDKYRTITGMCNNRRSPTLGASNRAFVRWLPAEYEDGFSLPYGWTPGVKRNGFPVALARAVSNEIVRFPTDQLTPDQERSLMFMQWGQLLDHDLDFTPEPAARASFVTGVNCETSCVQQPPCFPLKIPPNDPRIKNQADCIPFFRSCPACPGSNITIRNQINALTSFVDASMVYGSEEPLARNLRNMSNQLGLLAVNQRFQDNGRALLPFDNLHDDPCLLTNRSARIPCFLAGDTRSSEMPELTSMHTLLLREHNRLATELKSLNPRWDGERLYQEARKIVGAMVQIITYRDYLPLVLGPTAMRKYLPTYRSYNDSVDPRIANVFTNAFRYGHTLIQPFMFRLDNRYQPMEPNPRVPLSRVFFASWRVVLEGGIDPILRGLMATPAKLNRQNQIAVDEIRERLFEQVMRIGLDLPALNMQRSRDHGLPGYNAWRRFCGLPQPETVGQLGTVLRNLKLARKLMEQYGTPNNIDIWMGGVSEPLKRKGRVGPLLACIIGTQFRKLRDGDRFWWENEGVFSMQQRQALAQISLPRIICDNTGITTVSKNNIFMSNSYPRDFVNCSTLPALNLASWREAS", "assay": "cell-based or functional assay", "note": "Ends that are not written are not given here. dPEG24 = 24 PEG moieties, at the C-terminus", "data": [{"binder": "IALILEPICCQERAA-dPEG24 (cysteine pairing not given here)", "note": "[PA-dPEG24 (IALILEPICCQERAA-dPEG24)]", "values": [{"measurement": "peroxidase activity by TMB in peritoneal wash supernatant (rat; 0.1 mg purified MPO IP, then 20 mg PA-dPEG24 IP, 2 hours)", "result": 5, "unit": "fold decrease"}]}]}
